From patent US20150273048A1

Legend:
[1] = molecular target: TL-M2e5x fusion protein (Toll-like receptor ligand sequence plus five tandem heterologous M2e domain); test: ELISA on VLPs with 14C2
[2] = molecular target: TL-M2e5x fusion protein (Toll-like receptor ligand sequence plus five tandem heterologous M2e domain); test: ELISA on VLPs and virus with 14C2

“Influenza A virus M2 monoclonal antibody 14C2 (Abcam Inc., Cambridge, Mass.)” gave a fold reactivity relative to M2WT VLP [1] of over 60 fold and a fold reactivity relative to A/Philippines/2/82 virus [2] of 500 fold.
